Legend:
[1] = molecular target: T1, cTnI quality control product recombinant protein (human, UniProt P19429 2-210, limits assumed); experiment: AMC sensor, antibody immobilised, cTnI in solution
T1 construct: treated as the same molecule; also called cTnI antigen; cardiac troponin I
Method: Operating process: it is equilibrated in Buffer 1 (PBST) for 60 s, the antibody is immobilized in an antibody solution for 300 s, incubated in Buffer 2 (PBST) for 180 s, bound in antigen solution for 420 s, dissociated in the Buffer 2 for 1200 s, 10 mM of GLY solution with pH 1.69 and Buffer 3 are used for sensor regeneration, and data is output. KD represents an equilibrium dissociation constant, namely the affinity; Kon represents a binding rate; and Kd is represents a dissociation rate.

[2] = molecular target: T1, cTnI quality control product …; experiment: sandwich ELISA, antibody 0.457 ng/ml on anti-mouse IgG, cTnI 0.15 ug/ml, HRP second mAb
Method: (§1) After mutation, the antibody activity is detected. 1 μg/ml of goat anti-mouse IgG is diluted with coating solution to coat a microwell plate, 100 μL per well, and overnight at 4 DEG C.; on the next day, it is washed twice with washing solution, and patted dry; blocking solution (20% BSA+80% PBS) is added, 120 μL per well, 37 DEG C., and 1 h, and patted dry; a diluted cTnI monoclonal antibody is added, 100 μL/well, 37 DEG C., and 60 min; liquid in the plate is shaken off, patted dry, and 20% of mouse negative blood is added for blocking, 120 μl per well, 37 DEG C., 1 h; liquid in the plate is shaken off, patted dry, a diluted cTnI antigen (0.15 μg/ml) is added, 100 μL per well, 37 DEG C., and 40 min; it is washed for 5 times with the washing solution, and patted dry; another strain of the cTnI monoclonal antibody (1:5K) labeled with HRP is added, 100 μL per well, 37 DEG C., and 30 min; color developing solution A (50 μL/well) is added, color developing solution B (50 μL/well) is added, 10 min; stop solution is added, 50 μL/well; and a OD value is read at 450 nm (refer to 630 nm) on a microplate reader.

[3] = molecular target: T1, cTnI quality control product …; experiment: sandwich ELISA, antibody 1.372 ng/ml on anti-mouse IgG, cTnI 0.15 ug/ml, HRP second mAb
Method: as §1

[4] = molecular target: T1, cTnI quality control product …; experiment: sandwich ELISA, antibody 4.115 ng/ml on anti-mouse IgG, cTnI 0.15 ug/ml, HRP second mAb
Method: as §1

[5] = molecular target: T1, cTnI quality control product …; experiment: sandwich ELISA, antibody 12.346 ng/ml on anti-mouse IgG, cTnI 0.15 ug/ml, HRP second mAb
Method: as §1

[6] = molecular target: T1, cTnI quality control product …; experiment: sandwich ELISA, antibody 37.037 ng/ml on anti-mouse IgG, cTnI 0.15 ug/ml, HRP second mAb
Method: as §1

[7] = molecular target: T1, cTnI quality control product …; experiment: sandwich ELISA, antibody 0.000 ng/ml (blank of this series), cTnI 0.15 ug/ml, HRP second mAb
Method: as §1

T1 sequence (P19429 2-210 limits assumed): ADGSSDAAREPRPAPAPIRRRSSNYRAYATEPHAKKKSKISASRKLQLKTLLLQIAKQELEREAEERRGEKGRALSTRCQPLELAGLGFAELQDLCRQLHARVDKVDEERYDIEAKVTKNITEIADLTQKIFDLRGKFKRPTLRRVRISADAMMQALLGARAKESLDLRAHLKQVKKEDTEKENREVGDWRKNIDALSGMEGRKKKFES

B1: Anti-cTnI-21C5 monoclonal antibody (recombinant) (antibody, mouse IgG2b, V domains shown)
VH: EVQLQQSGPELVKPGASVKMSCKASGYSFTLYVVHWVKQKPGQGLEWIGYIQPYLDGTRYNEKFKGKATLTVDKSSSTAFMELSSLTSEDSAVYYCARTGYGGYGLAWLAYWGQGTLVTVSA
VL: QAVVIQESALTTSPGETVTLTCRSSSGAATTSQYANWVQEKPDHLFTGLIGGSNNRAPGVPARFSGSLIGDKAALTITGAQTEDEAIYFCAIVYSNHWVFGGGTKLTVLG
notes: also called WT; Sample 1
Kd [1]: 70.9 nM
koff [1]: 0.0034 s⁻¹
kon [1]: 48000 M⁻¹ s⁻¹
OD450 (ref. 630 nm) [2]: 0.365 OD
OD450 (ref. 630 nm) [3]: 0.612 OD
OD450 (ref. 630 nm) [4]: 1.19 OD
OD450 (ref. 630 nm) [5]: 1.97 OD
OD450 (ref. 630 nm) [6]: 2.16 OD
OD450 (ref. 630 nm) [7]: 0.13 OD

B2: Mutation 1 (antibody, V domains shown)
VH: EVQLQQSGPELVKPGASVKMSCKASGYTFTLYVVHWVKQKPGQGLEWIGYIQPYLDGTKYNEKFKGKATLTVDKSSSTAFMELSSLTSEDSAVYYCARSGYGGYGLAWLAYWGQGTLVTVSA
VL: QAVVIQESALTTSPGETVTLTCRSSTGAATTSQYANWVQEKPDHLFTGLIGGSNNRAPGVPARFSGSLIGDKAALTITGAQTEDEAIYFCALVYSNHWVFGGGTKLTVLG
notes: CDR mutant of WT
Kd [1]: 4.2 nM
koff [1]: 0.000214 s⁻¹
kon [1]: 51000 M⁻¹ s⁻¹
OD450 (ref. 630 nm) [2]: 0.524 OD
OD450 (ref. 630 nm) [3]: 0.94 OD
OD450 (ref. 630 nm) [4]: 1.89 OD
OD450 (ref. 630 nm) [5]: 2.24 OD
OD450 (ref. 630 nm) [6]: 2.33 OD
OD450 (ref. 630 nm) [7]: 0.114 OD

B3: Mutation 2 (antibody, V domains shown)
VH: EVQLQQSGPELVKPGASVKMSCKASGYSFTLYVVHWVKQKPGQGLEWIGYIQPYLDGTKYNEKFKGKATLTVDKSSSTAFMELSSLTSEDSAVYYCARSGYGGYGLAWLAYWGQGTLVTVSA
VL: QAVVIQESALTTSPGETVTLTCRSSTGAATTSQYANWVQEKPDHLFTGLIGGSNNRVPGVPARFSGSLIGDKAALTITGAQTEDEAIYFCAIVYSNHWVFGGGTKLTVLG
notes: Built as m3, with this row's residues
OD450 (ref. 630 nm) [2]: 0.211 OD
OD450 (ref. 630 nm) [3]: 0.421 OD
OD450 (ref. 630 nm) [4]: 1.51 OD
OD450 (ref. 630 nm) [5]: 1.94 OD
OD450 (ref. 630 nm) [6]: 2.1 OD
OD450 (ref. 630 nm) [7]: 0.117 OD

B4: Mutation 3 (antibody, V domains shown)
VH: EVQLQQSGPELVKPGASVKMSCKASGYTFTLYVVHWVKQKPGQGLEWIGYIQPYLDGTHYNEKFKGKATLTVDKSSSTAFMELSSLTSEDSAVYYCARSGYGGYGLAWLAYWGQGTLVTVSA
VL: QAVVIQESALTTSPGETVTLTCRSSSGAATTSQYANWVQEKPDHLFTGLIGGSNNRIPGVPARFSGSLIGDKAALTITGAQTEDEAIYFCAAVYSNHWVFGGGTKLTVLG
notes: as for B3
OD450 (ref. 630 nm) [3]: 0.15 OD
OD450 (ref. 630 nm) [4]: 0.347 OD
OD450 (ref. 630 nm) [5]: 0.824 OD
OD450 (ref. 630 nm) [6]: 1.58 OD
